Data: PMC3861664 (The Journal of Biological Chemistry, 2013)
Changes are numbered by the printed parent chain. Names and notes keep the numbering of the source.

T1: glucagon receptor extracellular domain with the naturally occurring G40S mutation (recombinant, soluble) (human)
T1 chain: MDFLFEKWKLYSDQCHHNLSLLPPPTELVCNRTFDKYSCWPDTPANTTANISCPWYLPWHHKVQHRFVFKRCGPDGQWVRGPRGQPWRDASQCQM

T2: glucagon receptor extracellular domain, wild type (recombinant, soluble) (Homo sapiens)
T2 construct: glucagon receptor (GCGR), human, extracellular domain; A biotinylated form was used for phage selections; also called GCGR ECD; WT ECD
T2 chain: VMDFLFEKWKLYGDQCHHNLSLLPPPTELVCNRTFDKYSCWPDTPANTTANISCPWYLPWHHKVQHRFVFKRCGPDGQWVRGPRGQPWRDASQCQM

B1: mAb7.v35, humanized mAb7 with S54T/N97G (IgG) (antibody, V domains shown)
VH: EVQLVESGPGLVKPSETLSLSCTVSGDSITSGFWNWIRQPPGKGLEWIGYIGFTGSTYYNPSLKSRVTISRDTSKNQYSLKLSSVTAADTAVYYCASVDGSAALDYWGQGTLVTVSS
VL: DIVMTQTPLSLPVTPGQPASISCRSSQSLVHSNGNTYLHWYLQKPGQSPQLLIYKVSNRFSGVPDRFSGSGSGTDFTLKISRVEAEDVGVYYCSQSTHVPWTFGQGTKVEIK
notes: mAb7.v1 heavy chain with S54T (CDR H2) and N97G (CDR H3); that is the heavy chain of m13 (PDB 4LEX) with S28T put back and N97G added; as the light chain of m13 (PDB 4LEX); IgG; The methods say that mutations found in the humanised background were also introduced into murine mAb7 clones; source: recombinant antibody
B2: mAb7.v19, humanized mAb7 with N97G (IgG) (antibody, V domains shown)
VH: B1 VH with T54S
VL: B1 VL
notes: mAb7.v1 heavy chain with N97G (CDR H3); that is the heavy chain of m13 (PDB 4LEX) with S28T and S54T put back and N97G added; as the light chain of m13 (PDB 4LEX); IgG; also called N97G containing antibody; source: recombinant antibody
B3: mAb1, inhibitory anti-GCGR monoclonal antibody (antibody, V domains shown)
VH: QVQLVESGGGVVQPGRSLRLSCAASGFTFSSYGMHWVRQAPGKGLEWVAVMWYDGSNKDYVDSVKGRFTISRDNSKNTLYLQMNRLRAEDTAVYYCAREKDHYDILTGYNYYYGLDVWGQGTTVTVSS
VL: DIQMTQSPSSLSASVGDRVTITCRASQGIRNDLGWYQQKPGKAPKRLIYAASSLESGVPSRFSGSGSGTEFTLTISSVQPEDFVTYYCLQHNSNPLTFGGGTKVEIK
notes: as the heavy chain of the mAb1 Fab in PDB 4LF3 and 4ERS; as the light chain of the mAb1 Fab in PDB 4LF3 and 4ERS; also called anti-GCGR mAb1
B4: mAb7.v11, humanized mAb7 with S54T (IgG) (antibody, V domains shown)
VH: B1 VH with G100N
VL: B1 VL
notes: mAb7.v1 heavy chain with S54T (CDR H2); that is the heavy chain of m13 (PDB 4LEX) with S28T put back; as the light chain of m13 (PDB 4LEX); IgG; also called S54T alone; source: recombinant antibody
B5: mAb7.v1, humanized version of mAb7 (IgG) (antibody, V domains shown)
VH: B1 VH with T54S, G100N
VL: B1 VL
notes: as the light chain of m13 (PDB 4LEX); IgG; source: recombinant antibody

Target: T1, glucagon receptor extracellular domain …
Test: AlphaScreen competition with WT ECD
Conditions: not given

Row | Binder | IC50
1 | B1 | 21 nM
2 | B2 | 87 nM

Target: T2, glucagon receptor extracellular domain, …
Test: AlphaScreen or HTRF; competition: soluble WT or G40S GCGR ECD against WT GCGR ECD on donor beads for binding to mAb7, its variants (IgG) or mAb1 on acceptor beads
Conditions: both partners purified

Row | Binder | binding result
3 | B3 | binds
4 | B1 | binds
5 | B4 | binds
6 | B2 | binds
7 | B5 | binds
